Here are results for 1 molecule from article PMC7611088 (Nature methods, 2021).

In this assay the target is MbNbF3^c7HopQ (H. pylori). Description: BLI. Background: BLI is a label-free optical method that tracks binding on a fibre tip over time.

B1: membrane scaffold protein MSP1D1 (other)
chain: STFSKLREQLGPVTQEFWDNLEKETEGLRQEMSKDLEEVKAKVQPYLDDFQKKWQEEMELYRQKVEPLRAELQEGARQKLHELQEKLSPLGEEMRDRARAHVDALRTHLAPYSDELRQRLAARLEALKENGGARLAEYHAKATEHLSTLSEKAKPALEDLRQGLLPVLESFKVSFLSALEEYTKKLNTQ
modifications: biotinylated with EZ-link NHS-Biotin (biotin/antigen ratio 2 - 2.5) for BLI only
With B1, the binding result was “binds”.
